From patent US20130231277A1 (NEW YORK UNIVERSITY, published 2013)

Target: T1, ectodomain of murine βKlotho (F53 to L995 of SEQ ID NO: 218) with a C-terminal FLAG tag (murine, UniProt Q99N32 53-995)
T1 construct: Expressed in HEK293 cells and purified from culture media; also called βKlotho ectodomain; not shown: C-terminal FLAG tag
T1 sequence: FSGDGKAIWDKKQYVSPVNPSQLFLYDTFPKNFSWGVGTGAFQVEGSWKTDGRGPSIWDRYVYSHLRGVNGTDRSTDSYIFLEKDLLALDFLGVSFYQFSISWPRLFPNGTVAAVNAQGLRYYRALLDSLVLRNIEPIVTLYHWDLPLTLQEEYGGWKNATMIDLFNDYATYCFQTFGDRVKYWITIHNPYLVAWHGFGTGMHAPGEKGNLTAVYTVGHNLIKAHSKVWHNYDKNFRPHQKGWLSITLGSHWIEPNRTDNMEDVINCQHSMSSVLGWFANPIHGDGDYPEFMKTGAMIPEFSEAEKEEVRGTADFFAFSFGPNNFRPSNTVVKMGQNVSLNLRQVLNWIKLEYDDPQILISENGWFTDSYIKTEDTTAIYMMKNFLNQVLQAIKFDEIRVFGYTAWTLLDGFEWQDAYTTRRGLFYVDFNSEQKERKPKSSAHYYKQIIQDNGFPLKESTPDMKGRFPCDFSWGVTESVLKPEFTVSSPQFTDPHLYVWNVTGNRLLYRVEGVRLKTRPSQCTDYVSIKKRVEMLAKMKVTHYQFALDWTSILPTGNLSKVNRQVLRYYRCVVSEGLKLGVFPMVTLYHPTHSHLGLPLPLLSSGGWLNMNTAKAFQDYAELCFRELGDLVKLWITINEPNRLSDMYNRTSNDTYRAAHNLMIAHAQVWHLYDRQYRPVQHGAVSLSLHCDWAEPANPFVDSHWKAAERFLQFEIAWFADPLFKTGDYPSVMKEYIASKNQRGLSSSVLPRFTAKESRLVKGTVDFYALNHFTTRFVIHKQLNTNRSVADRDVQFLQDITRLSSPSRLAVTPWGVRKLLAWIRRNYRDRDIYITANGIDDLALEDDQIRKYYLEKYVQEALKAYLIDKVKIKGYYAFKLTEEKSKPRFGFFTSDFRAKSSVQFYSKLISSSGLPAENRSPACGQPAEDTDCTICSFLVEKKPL
Assay: SPR competition; FGF21 immobilized, fixed βKlotho ectodomain mixed with increasing FGF21 (FIG. 7A)
Experimental: Increasing concentrations of FGF21 were mixed with a fixed concentration of βKlotho ectodomain, and the mixtures were passed over a FGF21 chip. […] Increasing concentrations of FGF21²⁹⁻¹⁹⁰/FGF19¹⁹⁷⁻²¹⁶ chimera were mixed with a fixed concentration of βKlotho ectodomain, and the mixtures were passed over a FGF21 chip. […] The figure was created from the data shown in FIGS. 7A-B, which are representative of two independent experiments.
SPR experiments were performed on a Biacore 2000 instrument (Biacore AB), and all the protein-protein and protein-peptide interactions were studied at 25° C. in HBS-EP buffer (10 mM HEPES-NaOH, pH 7.4, 150 mM NaCl, 3 mM EDTA, 0.005% (v/v) polysorbate 20). Proteins were immobilized by amine coupling on flow channels of research grade CM5 chips (Biacore AB). Proteins were injected over a CM5 chip at a flow rate of 50 μl min⁻¹, and at the end of each protein injection (180 s), HBS-EP buffer (50 μl min⁻¹) was flowed over the chip to monitor dissociation for 180 s. In experiments where βKlotho binding to FGFR was analyzed, the chip surface was then regenerated by injecting 50 μl of 2.0 M NaCl in 10 mM sodium/potassium phosphate, pH 6.5. In experiments where α/βKlotho binding to FGF19/21/23 or binding of the FGFR1c-βKlotho complex to FGF21 was studied, 2.0 M NaCl in 10 mM sodium acetate, pH 4.5 was used for chip regeneration. […]

B1: human FGF21, secreted bioactive form (H29 to S209 of SEQ ID NO: 100) (ligand)
chain: HPIPDSSPLLQFGGQVRQRYLYTDDAQQTEAHLEIREDGTVGGAADQSPESLLQLKALKPGVIQILGVKTSRFLCQRPDGALYGSLHFDPEACSFRELLLEDGYNVYQSEAHGLPLHLPGNKSPHRDPAPRGPARFLPLPGLPPALPEPPGILAPQPPDVGSSDPLSMVGPSQGRSPSYAS
notes: Used both immobilized on the SPR chip and in solution; also called wild-type FGF21; native FGF21
Question: Does B1 bind?
Answer: binds
